Laboratory results: US8889130B2, “Treatment of osteoarthritis and pain” (Abbvie Inc., priority 2011, dated 2014)

Legend:
hIL-1β = hIL-1β (Homo sapiens, UniProt P01584); assay: Tetravalent dual-specific antigen binding by Biacore (sequential antigen injection), hIL-1β; conditions: for Response Unit, 1st antigen hIL-1β: hIL-1β injected as 1st antigen on captured DVD-Ig; for Response Unit, 2nd antigen hIL-1β: hIL-1β injected as 2nd antigen after hIL-1α
Experimental: The kinetics of DVD-Ig molecules binding to rhIL1-α and rhIL1-β was determined by surface plasmon resonance-based measurements with a Biacore 3000 instrument (Biacore AB, Uppsala, Sweden) using HBS-EP (10 mM HEPES, pH 7.4, 150 mM NaCl, 3 mM EDTA, and 0.005% surfactant P20) at 25° C. All chemicals were obtained from Biacore AB (Uppsala, Sweden) or otherwise from a different source as described herein. Approximately, 5000 RU of goat anti-human IgG Fcγ fragment specific polyclonal antibody (Pierce Biotechnology Inc, Rockford, Ill.) diluted in 10 mM sodium acetate (pH 4.5) was directly immobilized across a CM5 research grade biosensor chip using a standard amine coupling kit according to manufacturer's instructions and procedures at […]. Unreacted moieties on the biosensor surface were blocked with ethanolamine. Modified carboxymethyl dextran surface in flowcell 2 and 4 was used as a reaction surface. Unmodified carboxymethyl dextran without goat anti-human IgG in flow cell 1 and 3 was used as the reference surface. For kinetic analysis, rate equations derived from the 1:1 Langmuir binding model were fitted simultaneously to association and dissociation phases of all ten injections (using global fit analysis) using the Bioevaluation 4.0.1 software. Purified DVD-Ig samples were diluted in HEPES-buffered saline for capture across goat anti-human IgG Fc specific reaction surfaces and injected over reaction matrices at a flow rate of […]. The association and dissociation rate constants, kon (M-1s-1) and koff (s-1) were determined under a continuous flow rate of […]. Rate constants were derived by making kinetic binding measurements at ten different antigen concentrations ranging from 1.25 to 1000 nM. The equilibrium dissociation constant (M) of the reaction between DVD-Ig molecule and rhIL1α/β was then calculated from the kinetic rate constants by the following formula: KD=koff/kon. Aliquots of rhIL1α/β samples were also simultaneously injected over a blank reference and reaction CM surface to record and subtract any nonspecific binding background to eliminate the majority of the refractive index change and injection noise. Surfaces were regenerated with two subsequent […] injections of 10 mM Glycine (pH 1.5) at a flow rate of […]. The anti-Fc antibody immobilized surfaces were completely regenerated and retained their full capture capacity over twelve cycles. The apparent stoichiometry of the captured DVD-Ig-rhIL1α/β complex was calculated under saturating binding conditions (steady-state equilibrium) using the following formula: […]
In addition, tetravalent dual-specific antigen binding of DVD-Ig binding protein was also analyzed by Biacore (Table 14). DVD-Ig binding protein was first captured via a goat anti-human Fc antibody on the Biacore sensor chip, and the first antigen was injected and a binding signal observed. As the DVD-Ig binding protein was saturated by the first antigen, the second antigen was then injected and the second signal observed. This was done either by first injecting IL-1β then IL-1α or by first injecting IL-1α followed by IL-1β for DVD2-Ig binding protein. In either sequence, a dual-binding activity was detected. Similar results were obtained for DVD1-Ig binding protein. Thus, each DVD-Ig binding protein was able to bind both antigens simultaneously as a dual-specific tetravalent molecule. […] Upon the injection of the second antigen, while DVD-Ig binding protein was already occupied by the first antigen, the stoichiometry of both DVD-Igs binding protein to the second antigen (i.e., hIL-1α or hIL-1β was between 1.0 and 1.3. Thus, DVD-Ig binding protein was able to bind two IL-1α and two IL-β molecules. DVD-Ig binding protein was first captured via a goat anti-human Fc antibody on the Biacore sensor chip, and the first antigen was injected and a binding signal observed, followed by the injection of the second antigen.

[1] = system: IL-1α, IL-1β, or both IL-1α and IL-1β; assay: Functional homogeneity: antigen binding in solution by SEC; conditions: 120-minute incubation at 37° C. with antigen in equal molar ratio
Experimental: Because DVD2-Ig binding protein was purified by Protein A chromatography instead of target-specific affinity chromatography, any potential misfolded and/or mismatched VL/VH domains, if present, can be assessed by binding studies against the two different antigens. Such binding analysis was conduced by size exclusion liquid chromatography (SEC). DVD2-Ig binding protein, alone or after a 120-minute incubation period at 37° C. with IL-1α, IL-1β, or both IL-1α and IL-1β, in equal molar ratio, were applied to the column. Each of the antigens was also run alone as controls. […] In the presence of both IL-1α and IL-1β, there was a further and complete shift of the DVD2-Ig binding protein signal, indicating all DVD2-Ig molecules were able to bind both antigens in a uniform fashion.

male DBA-1 mice = assay: Collagen-induced arthritis mouse model (rheumatoid arthritis); assay type: in vivo; conditions: therapeutic mode; 1-3 mg/kg intraperitoneally every other day after disease onset
Experimental: The therapeutic effects of anti-IL-1α, anti-IL-1β, combined anti-IL-1α/anti-IL-1β, and murine IL-1α/β DVD4-Ig, were evaluated in a collagen-induced arthritis mouse model well known in the art. Briefly, male DBA-1 mice were immunized with bovine type II collagen in CFA at the base of the tail. The mice were boosted with Zymosan intraperitoneally (i.p) at day 21. After disease onset at day 24-27, mice were selected and divided into separate groups of 10 mice each. […] To neutralize IL-1, mice were injected every other day with 1-3 mg/kg of anti-IL-1α mAb, anti-IL-1βmAb, combination of anti-IL-1α and anti-IL-1β mAbs, or murine IL-1α/β DVD4-Ig intraperitoneally. Mice were carefully examined three times a week for the visual appearance of arthritis in peripheral joints, and scores for disease activity determined.

mice (female BALB/c) = assay: Mouse carrageenan-induced inflammatory pain model, thermal hyperalgesia (paw withdrawal latency); assay type: in vivo; conditions: Example 8; 48 and 96 hours; single mAb 900 μg; diclofenac 30 mg/kg
Experimental: To evaluate whether neutralization of IL-1α and IL-1β produces antinociceptive effects in inflammatory pain conditions, anti-IL-1α and anti-IL-1β mAbs were evaluated for the ability to reverse established pain in the mouse carrageenan paw model of nociceptive pain.
The efficacy of the anti-IL-1α and anti-IL-1β mAbs was evaluated when administered alone or in combination in the mouse carrageenan model (FIG. 15). At 30 hours after intraplantar carrageenan injection: 900 μg of either anti-IL-1α mAb, anti-IL-1β mAb, or their combination were administered in different groups of mice. Thermal hyperalgesia testing was performed 48 and 96 hours after carrageenan. […] The antinociceptive effect in 900 μg combination group was 53±7% at 48 hours, and 82±11% at 96 hours.
Different groups of animals were treated either with vehicle or a combination of anti-IL-1α and anti-IL-1β mAbs (100, 300, or 900 μg/mouse of each mAb) 30 hours after carrageenan injection. […] The antinociceptive effect in 900 μg treatment group was 70±9% at 48 hours, and 62±4% at 96 hours. Diclofenac (30 mg/kg), a non-steroidal, anti-inflammatory analgesic, was included as positive control in the study, and it increased the mean paw withdrawal latency of the injured paw to 7.01±0.58 s at 48 hours and 7.48±0.34 s at 96 hours when administered p.o. 60 minutes before testing (p<0.01 at both time points).

[2] = hIL-1β injected as 2nd antigen, DVD-Ig already saturated with hIL-1α

Sequence of hIL-1β (P01584 117-269): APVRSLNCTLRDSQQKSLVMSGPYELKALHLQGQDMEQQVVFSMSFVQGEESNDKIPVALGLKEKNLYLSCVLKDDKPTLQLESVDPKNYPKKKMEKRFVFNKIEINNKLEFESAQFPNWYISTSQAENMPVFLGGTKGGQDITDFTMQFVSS

Molecule	Response Unit, 1st antigen hIL-1β (hIL-1β) [Response Unit]	Response Unit, 2nd antigen hIL-1β (hIL-1β)	Stoichiometry hIL-1β:DVD-Ig (hIL-1β; [2])	shift of the DVD2-Ig binding protein SEC signal in complex with antigen [1] [%]	Stoichiometry hIL-1β:DVD-Ig (hIL-1β; hIL-1β injected as 1st antigen)	reduction in mean arthritis score compared to control group (male DBA-1 mice) [%]	thermal hyperalgesia / antinociceptive effect (mice (female BALB/c))
DVD2-Ig: DVD-Ig as DVD1-Ig but with linkers ADAAP (light chain) and AKTTPP (heavy chain) (antibody) VH: MQLSGLTSEDSAMYFCVRFPTGNDYYAMDYWGQGTSVTVSSAKTTPPQIQLVQSGPELKKPGETVKISCKASGYTFRNYGMNWVKQAPGKDLKRMAWINTYTGESTYADDFKGRFAFSLETSASTAYLQINNLKNEDTATYFCARGIYYYGSSYAMDYWGQGTSVTVSS VL: PVEADDAATYYCQQNNEDPFTFGSGTKLEIKRADAAPNIQMTQTTSSLSASLGDRVTISCRASQDISNCLNWYQQKPDGTVKLLIYYTSRLHSGVPSRFSGSGSGTDYSLTISNLEQEDIATYFCQQGKTLPYAFGGGTKLEINR	159	hIL-1β: 137 Response Unit	1.3	100	–	–	–
DVD1-Ig: DVD-Ig binding hIL-1α and hIL-1β; VH/VL of 13F5.G5 fused directly to N-terminus of 3D12.E3 VH/VL, no linker (antibody) VH: MQLSGLTSEDSAMYFCVRFPTGNDYYAMDYWGQGTSVTVSSQIQLVQSGPELKKPGETVKISCKASGYTFRNYGMNWVKQAPGKDLKRMAWINTYTGESTYADDFKGRFAFSLETSASTAYLQINNLKNEDTATYFCARGIYYYGSSYAMDYWGQGTSVTVSS VL: PVEADDAATYYCQQNNEDPFTFGSGTKLEIKRNIQMTQTTSSLSASLGDRVTISCRASQDISNCLNWYQQKPDGTVKLLIYYTSRLHSGVPSRFSGSGSGTDYSLTISNLEQEDIATYFCQQGKTLPYAFGGGTKLEINRR	141	hIL-1β: 75 Response Unit	1.0	–	1.5	–	–
10G11: mouse anti-mouse IL-1β monoclonal antibody (clone 10G11) from IL-1α/β double KO mice (antibody, V domains shown, heavy chain variable domain of 10G11; light chain variable domain of 10G11, mouse anti-mouse IL-1β monoclonal antibody (clone 10G11) from IL-1α/β double KO mice) VH: EVQLQQSGPELVKPGTSVKMSCKTSGYTFTSYVMHWVKQKPGQGLEWIGYIIPYNDNTKYNEKFKGKATLTSDKSSSTAYMELSSLTSEDSAVYYCARRNEYYGSSFFDYWGQGTTLTVSS VL: DIQMTQSPASLSASVGETVTITCRGSGILHNYLVWYQQKQGKSPQLLVYSAKILADGVPSRFSGSGSGTQYSLKINSLQPEDFGSYYCQHFWSTPFTFGSGTKLEIKR	–	–	–	–	–	24	no significant antinociceptive effect
